Data set [1] relates to HeLa Kyoto. Briefly: solubility in G1/S (NP-40 vs SDS abundance) (log2 ratio); higher = more soluble. To be noted: cell cycle stage: G1/S.
For data set [2], the system named is HeLa Kyoto. The data set is described as follows: solubility change mitosis vs G1/S (difference of NP-40 vs SDS log2 ratios) (log2 ratio difference); higher = more soluble in mitosis.
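Throughout, for solubility change mitosis vs G1/S (difference of NP-40 vs SDS log2 ratios): synchronized HeLa Kyoto cells (double thymidine block for G1/S, nocodazole release for mitosis), protein amounts in NP-40 versus SDS lysates quantified by mass spectrometry, three biological replicates.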
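Throughout, for solubility in G1/S (NP-40 vs SDS abundance): HeLa Kyoto cells arrested at G1/S by double thymidine block, proteins quantified by TMT10plex mass spectrometry in mild NP-40 versus SDS extracts, three biological replicates.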

Take “MEGESSRFEIHTPVSDKKKKKCSIHKERPQKHSHEIFRDSSLVNEQSQITRRKKRKKDFQHLISSPLKKSRICDETANATSTLKKRKKRRYSALEVDEEAGVTVVLVDKENINNTPKHFRKDVDVVCVDMSIEQKLPRKPKTDKFQVLAKSHAHKSEALHSKVREKKNKKHQRKAASWESQRARDTLPQSESHQEESWLSVGPGGEITELPASAHKNKSKKKKKKSSNREYETLAMPEGSQAGREAGTDMQESQPTVGLDDETPQLLGPTHKKKSKKKKKKKSNHQEFEALAMPEGSQVGSEVGADMQESRPAVGLHGETAGIPAPAYKNKSKKKKKKSNHQEFEAVAMPESLESAYPEGSQVGSEVGTVEGSTALKGFKESNSTKKKSKKRKLTSVKRARVSGDDFSVPSKNSESTLFDSVEGDGAMMEEGVKSRPRQKKTQACLASKHVQEAPRLEPANEEHNVETAEDSEIRYLSADSGDADDSDADLGSAVKQLQEFIPNIKDRATSTIKRMYRDDLERFKEFKAQGVAIKFGKFSVKENKQLEKNVEDFLALTGIESADKLLYTDRYPEEKSVITNLKRRYSFRLHIGRNIARPWKLIYYRAKKMFDVNNYKGRYSEGDTEKLKMYHSLLGNDWKTIGEMVARSSLSVALKFSQISSQRNRGAWSKSETRKLIKAVEEVILKKMSPQELKEVDSKLQENPESCLSIVREKLYKGISWVEVEAKVQTRNWMQCKSKWTEILTKRMTNGRRIYYGMNALRAKVSLIERLYEINVEDTNEIDWEDLASAIGDVPPSYVQTKFSRLKAVYVPFWQKKTFPEIIDYLYETTLPLLKEKLEKMMEKKGTKIQTPAAPKQVFPFRDIFYYEDDSEGEDIEKESEGQAPCMAHACNSSTLGGQGRWII [TTF1]”: the “solubility in G1/S (log2)” value in data set [1] is -1.02. Also, in data set [2], the “solubility change mitosis (log2)” value amounted to 0.169.

Regarding ZFYVE26, the “solubility in G1/S (log2)” value in data set [1] turned out to be 0.0351. The “solubility change mitosis (log2)” value in data set [2] is -0.0176.

For “MDPIRSFCGKLRSLASTLDCETARLQRALDGEESDFEDYPMRILYDLHSEVQTLKDDVNILLDKARLENQEGIDFIKATKVLMEKNSMDIMKIREYFQKYGYSPRVKKNSVHEQEAINSDPELSNCENFQKTDVKDDLSDPPVASSCISEKSPRSPQLSDFGLERYIVSQVLPNPPQAVNNYKEEPVIVTPPTKQSLVKVLKTPKCALKMDDFECVTPKLEHFGISEYTMCLNEDYTMGLKNARNNKSEEAIDTESRLNDNVFATPSPIIQQLEKSDAEYTNSPLVPTFCTPGLKIPSTKNSIALVSTNYPLSKTNSSSNDLEVEDRTSLVLNSDTCFENLTDPSSPTISSYENLLRTPTPPEVTKIPEDILQLLSKYNSNLATPIAIKAVPPSKRFLKHGQNIRDVSNKEN [SKA3]”, in data set [1], the “solubility in G1/S (log2)” value was 0.436. Further, the “solubility change mitosis (log2)” value in data set [2] turned out to be 0.0344.

With “MNPQQQRMAAIGTDKELSDLLDFSAMFSPPVNSGKTRPTTLGSSQFSGSGIDERGGTTSWGTSGQPSPSYDSSRGFTDSPHYSDHLNDSRLGAHEGLSPTPFMNSNLMGKTSERGSFSLYSRDTGLPGCQSSLLRQDLGLGSPAQLSSSGKPGTAYYSFSATSSRRRPLHDSAALDPLQAKKVRKVPPGLPSSVYAPSPNSDDFNRESPSYPSPKPPTSMFASTFFMQDGTHNSSDLWSSSNGMSQPGFGGILGTSTSHMSQSSSYGNLHSHDRLSYPPHSVSPTDINTSLPPMSSFHRGSTSSSPYVAASHTPPINGSDSILGTRGNAAGSSQTGDALGKALASIYSPDHTSSSFPSNPSTPVGSPSPLTGTSQWPRPGGQAPSSPSYENSLHSLQSRMEDRLDRLDDAIHVLRNHAVGPSTSLPAGHSDIHSLLGPSHNAPIGSLNSNYGGSSLVASSRSASMVGTHREDSVSLNGNHSVLSSTVTTSSTDLNHKTQENYRGGLQSQSGTVVTTEIKTENKEKDENLHEPPSSDDMKSDDESSQKDIKVSSRGRTSSTNEDEDLNPEQKIEREKERRMANNARERLRVRDINEAFKELGRMCQLHLKSEKPQTKLLILHQAVAVILSLEQQVRERNLNPKAACLKRREEEKVSAVSAEPPTTLPGTHPGLSETTNPMGHM [TCF12]”, the “solubility in G1/S (log2)” value in data set [1] came out at 0.156. Also, in data set [2], the “solubility change mitosis (log2)” value is -0.221.

For the substance “MARKSNLPVLLVPFLLCQALVRCSSPLPLVVNTWPFKNATEAAWRALASGGSALDAVESGCAMCEREQCDGSVGFGGSPDELGETTLDAMIMDGTTMDVGAVGDLRRIKNAIGVARKVLEHTTHTLLVGESATTFAQSMGFINEDLSTTASQALHSDWLARNCQPNYWRNVIPDPSKYCGPYKPPGILKQDIPIHKETEDDRGHDTIGMVVIHKTGHIAAGTSTNGIKFKIHGRVGDSPIPGAGAYADDTAGAAAATGNGDILMRFLPSYQAVEYMRRGEDPTIACQKVISRIQKHFPEFFGAVICANVTGSYGAACNKLSTFTQFSFMVYNSEKNQPTEEKVDCI”, the “solubility in G1/S (log2)” value in data set [1] was 0.0983. The “solubility change mitosis (log2)” value in data set [2] is -0.136.

With “MFSRNHRSRVTVARGSALEMEFKRGRFRLSLFSDLPEDTELQRKLDHEIRMREGACKLLAACSQREQALEATKSLLVCNSRILSYMGELQRRKEAQVLGKTSRRPSDSGPPAERSPCRGRVCISDLRIPLMWKDTEYFKNKGDLHRWAVFLLLQLGEHIQDTEMILVDRTLTDISFQSNVLFAEAGPDFELRLELYGACVEEEGALTGGPKRLATKLSSSLGRSSGRRVRASLDSAGGSGSSPILLPTPVVGGPRYHLLAHTTLTLAAVQDGFRTHDLTLASHEENPAWLPLYGSVCCRLAAQPLCMTQPTASGTLRVQQAGEMQNWAQVHGVLKGTNLFCYRQPEDADTGEEPLLTIAVNKETRVRAGELDQALGRPFTLSISNQYGDDEVTHTLQTESREALQSWMEALWQLFFDMSQWKQCCDEIMKIETPAPRKPPQALAKQGSLYHEMAIEPLDDIAAVTDILTQREGARLETPPPWLAMFTDQPALPNPCSPASVAPAPDWTHPLPWGRPRTFSLDAVPPDHSPRARSVAPLPPQRSPRTRGLCSKGQPRTWLQSPV [RTKN]”, the “solubility in G1/S (log2)” value in data set [1] amounted to 0.208. Besides, the “solubility change mitosis (log2)” value in data set [2] is -0.0634.

Consider “MPQKDPCQKQACEIQKCLQANSYMESKCQAVIQELRKCCAQYPKGRSVVCSGFEKEEEENLTRKSASK [CMC4]”, for which the “solubility in G1/S (log2)” value in data set [1] is -1.4. Besides, the “solubility change mitosis (log2)” value in data set [2] worked out at 0.221.

For the substance “MELGKGKLLRTGLNALHQAVHPIHGLAWTDGNQVVLTDLRLHSGEVKFGDSKVIGQFECVCGLSWAPPVADDTPVLLAVQHEKHVTVWQLCPSPMESSKWLTSQTCEIRGSLPILPQGCVWHPKCAILTVLTAQDVSIFPNVHSDDSQVKADINTQGRIHCACWTQDGLRLVVAVGSSLHSYIWDSAQKTLHRCSSCLVFDVDSHVCSITATVDSQVAIATELPLDKICGLNASETFNIPPNSKDMTPYALPVIGEVRSMDKEATDSETNSEVSVSSSYLEPLDLTHIHFNQHKSEGNSLICLRKKDYLTGTGQDSSHLVLVTFKKAVTMTRKVTIPGILVPDLIAFNLKAHVVAVASNTCNIILIYSVIPSSVPNIQQIRLENTERPKGICFLTDQLLLILVGKQKLTDTTFLPSSKSDQYAISLIVREIMLEEEPSITSGESQTTYSTFSAPLNKANRKKLIESLSPDFCHQNKGLLLTVNTSSQNGRPGRTLIKEIQSPLSSICDGSIALDAEPVTQPASLPRHSSTPDHTSTLEPPRLPQRKNLQSEKETYQLSKEVEILSRNLVEMQRCLSELTNRLHNGKKSSSVYPLSQDLPYVHIIYQKPYYLGPVVEKRAVLLCDGKLRLSTVQQTFGLSLIEMLHDSHWILLSADSEGFIPLTFTATQEIIIRDGSLSRSDVFRDSFSHSPGAVSSLKVFTGLAAPSLDTTGCCNHVDGMA [C2ORF44]”, the “solubility in G1/S (log2)” value in data set [1] was -0.00732. In data set [2], the “solubility change mitosis (log2)” value is -0.0919.

The values above are taken from the supplement of paper PMC5998384.
